Experiments:
ADI-22523 Fab = biological target: T1, ADI-22523 Fab; assay: BLI; tip anti-ID IgG, solution ADI-22523 Fab
T1 construct: anti-CD3 Fab by papain digestion of the IgG
How it was run: (§1)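 Bio-layer interferometry with anti-ID IgG loaded on AHC tips. KD (koff/kon) from 1:1 binding model fit; avid format.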

ADI-22523 IgG = biological target: T2, ADI-22523 IgG; assay: BLI; tip anti-ID IgG, solution ADI-22523 IgG
T2 construct: anti-CD3 IgG
How it was run: as §1

ADI-70326 = biological target: T3, ADI-70326; assay: SPR Carterra, yeast anti-ID
T3 construct: anti-CD3 antibody made in CHO cells, captured by anti-human Fc
T3 sequence (VH, as listed by the source limits assumed, chain 1 of 2): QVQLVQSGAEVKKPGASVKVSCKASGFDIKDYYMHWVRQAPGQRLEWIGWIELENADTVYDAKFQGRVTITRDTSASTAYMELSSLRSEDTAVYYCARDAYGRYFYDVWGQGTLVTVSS
T3 sequence (VL, as listed by the source limits assumed, chain 2 of 2): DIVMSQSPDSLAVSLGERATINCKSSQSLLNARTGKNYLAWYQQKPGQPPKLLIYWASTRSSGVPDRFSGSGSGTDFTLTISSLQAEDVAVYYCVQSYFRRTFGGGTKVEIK
How it was run: (§2)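 Surface plasmon resonance on a Carterra LSA at 25° C, HBSTE buffer. The anti-CD3 antibody is Fc-captured (100 nM, 5 min) and the anti-idiotype antibody serves as analyte; dissociation lasts 300s and the surface is regenerated with 10 mM glycine pH 1.7.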

ADI-48650 = biological target: T4, ADI-48650; assay: SPR Carterra, yeast anti-ID
T4 construct: pH-dependent anti-CD3 antibody made in CHO cells
How it was run: as §2

ADI-48587 = biological target: T5, ADI-48587; assay: SPR Carterra, yeast anti-ID
T5 construct: pH-dependent anti-CD3 antibody made in CHO cells
How it was run: as §2

ADI-50024 = biological target: T6, ADI-50024; assay: SPR Carterra, yeast anti-ID
T6 construct: anti-CD3 antibody made in CHO cells, captured by anti-human Fc
How it was run: as §2

ADI-26909 = biological target: T7, ADI-26909; assay: SPR Carterra, yeast anti-ID
T7 construct: anti-CD3 antibody made in CHO cells, captured by anti-human Fc
How it was run: as §2

ADI-70330 = biological target: T8, ADI-70330; assay: SPR Carterra, yeast anti-ID
T8 construct: anti-CD3 antibody made in CHO cells, captured by anti-human Fc
How it was run: as §2

ADI-67445 = biological target: T9, ADI-67445; assay: SPR Carterra, yeast anti-ID
T9 construct: anti-CD3 antibody made in CHO cells, captured by anti-human Fc
How it was run: as §2

ADI-26915 = biological target: T10, ADI-26915; assay: SPR Carterra, yeast anti-ID
T10 construct: anti-CD3 antibody made in CHO cells, captured by anti-human Fc
T10 sequence (VH, as listed by the source, chain 1 of 2): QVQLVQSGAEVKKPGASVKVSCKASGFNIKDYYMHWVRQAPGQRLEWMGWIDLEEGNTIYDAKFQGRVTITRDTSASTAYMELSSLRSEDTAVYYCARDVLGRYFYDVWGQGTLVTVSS
T10 sequence (VL, as listed by the source, chain 2 of 2): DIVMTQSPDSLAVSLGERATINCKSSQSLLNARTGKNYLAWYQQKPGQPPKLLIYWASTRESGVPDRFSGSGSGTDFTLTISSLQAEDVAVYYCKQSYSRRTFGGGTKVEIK
How it was run: as §2

CTL-62240 = biological target: T11, CTL-62240; assay: SPR Carterra, yeast anti-ID
T11 construct: also called ONO-4685
T11 sequence (VH, as listed by the source, chain 1 of 2): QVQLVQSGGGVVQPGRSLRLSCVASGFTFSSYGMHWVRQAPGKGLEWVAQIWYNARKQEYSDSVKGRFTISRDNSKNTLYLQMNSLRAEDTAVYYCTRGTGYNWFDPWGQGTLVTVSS
T11 sequence (VL, as listed by the source, chain 2 of 2): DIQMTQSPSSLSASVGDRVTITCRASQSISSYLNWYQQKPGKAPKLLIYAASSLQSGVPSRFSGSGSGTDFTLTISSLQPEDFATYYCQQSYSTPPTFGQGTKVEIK
How it was run: as §2

ADI-70327 = biological target: T12, ADI-70327; assay: SPR Carterra, yeast anti-ID
T12 construct: anti-CD3 antibody made in CHO cells, captured by anti-human Fc
How it was run: as §2

CTL-62223 = biological target: T13, CTL-62223; assay: SPR Carterra, yeast anti-ID
T13 construct: also called mosunetuzumab
T13 sequence (VH, as listed by the source, chain 1 of 2): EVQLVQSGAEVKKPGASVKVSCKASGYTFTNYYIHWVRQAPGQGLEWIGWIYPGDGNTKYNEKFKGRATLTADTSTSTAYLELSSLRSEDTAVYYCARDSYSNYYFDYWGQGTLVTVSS
T13 sequence (VL, as listed by the source, chain 2 of 2): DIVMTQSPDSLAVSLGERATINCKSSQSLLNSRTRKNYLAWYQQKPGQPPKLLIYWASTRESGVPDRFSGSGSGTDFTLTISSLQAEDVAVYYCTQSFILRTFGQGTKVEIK
How it was run: as §2

CTL-62228 = biological target: T14, CTL-62228; assay: SPR Carterra, yeast anti-ID
T14 construct: also called glofitamab
How it was run: as §2

CTL-62227 = biological target: T15, CTL-62227; assay: SPR Carterra, yeast anti-ID
T15 construct: also called odronextamab
How it was run: as §2

ADI-76357 = biological target: T16, ADI-76357; assay: SPR Carterra avidity, yeast anti-ID, *koff limit
T16 construct: anti-CD3 antibody made in CHO cells, captured by anti-human Fc
T16 sequence (VH, as listed by the source, chain 1 of 2): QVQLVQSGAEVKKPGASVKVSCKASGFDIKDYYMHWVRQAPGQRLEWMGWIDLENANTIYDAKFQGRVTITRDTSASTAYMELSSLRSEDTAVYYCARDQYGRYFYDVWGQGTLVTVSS
How it was run: as §2

ADI-26906 IgG = biological target: T17, ADI-26906 IgG; assay: SPR Carterra avidity, yeast anti-ID, *koff limit
T17 construct: anti-CD3 IgG
T17 sequence (VH, as listed by the source limits assumed, chain 1 of 2): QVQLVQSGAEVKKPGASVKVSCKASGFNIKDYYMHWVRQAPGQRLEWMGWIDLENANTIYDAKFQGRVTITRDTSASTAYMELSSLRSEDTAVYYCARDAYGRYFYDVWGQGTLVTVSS
How it was run: as §2

ADI-26924 = biological target: T18, ADI-26924; assay: SPR Carterra avidity, yeast anti-ID
T18 construct: anti-CD3 antibody made in CHO cells, captured by anti-human Fc
T18 sequence (VH, as listed by the source, chain 1 of 2): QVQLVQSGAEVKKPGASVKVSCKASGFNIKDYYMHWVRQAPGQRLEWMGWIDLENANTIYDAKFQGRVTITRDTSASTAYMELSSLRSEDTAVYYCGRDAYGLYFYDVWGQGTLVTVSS
T18 sequence (VL, as listed by the source, chain 2 of 2): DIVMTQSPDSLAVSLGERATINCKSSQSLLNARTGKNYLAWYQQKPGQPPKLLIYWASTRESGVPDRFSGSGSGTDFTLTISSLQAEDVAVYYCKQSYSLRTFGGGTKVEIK
How it was run: as §2

ADI-48576 = biological target: T19, ADI-48576; assay: SPR Carterra avidity, yeast anti-ID
T19 construct: pH-dependent anti-CD3 antibody made in CHO cells
How it was run: as §2

ADI-74965 = biological target: T20, ADI-74965; assay: SPR Carterra avidity, yeast anti-ID
T20 construct: pH-dependent anti-CD3 antibody made in CHO cells
T20 sequence (VH, as listed by the source, chain 1 of 2): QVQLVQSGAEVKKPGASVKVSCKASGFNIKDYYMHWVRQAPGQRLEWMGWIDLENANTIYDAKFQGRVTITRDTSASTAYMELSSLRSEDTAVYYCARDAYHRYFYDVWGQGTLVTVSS
T20 sequence (VL, as listed by the source, chain 2 of 2): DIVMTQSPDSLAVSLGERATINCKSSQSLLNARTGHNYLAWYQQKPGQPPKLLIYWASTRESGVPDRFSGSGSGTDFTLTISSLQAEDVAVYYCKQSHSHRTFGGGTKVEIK
How it was run: as §2

ADI-67447 = biological target: T21, ADI-67447; assay: SPR Carterra avidity, yeast anti-ID
T21 construct: anti-CD3 antibody made in CHO cells, captured by anti-human Fc
How it was run: as §2

ADI-26916 IgG = biological target: T22, ADI-26916 IgG; assay: SPR Carterra avidity, yeast anti-ID
T22 construct: anti-CD3 IgG
T22 sequence (VH, as listed by the source, chain 1 of 2): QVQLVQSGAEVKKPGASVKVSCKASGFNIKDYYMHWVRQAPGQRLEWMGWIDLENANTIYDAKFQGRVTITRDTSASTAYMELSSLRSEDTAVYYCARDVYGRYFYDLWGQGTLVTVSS
How it was run: as §2

ADI-26943 = biological target: T23, ADI-26943; assay: SPR Carterra avidity, yeast anti-ID
T23 construct: anti-CD3 antibody made in CHO cells, captured by anti-human Fc
T23 sequence (VH, as listed by the source, chain 1 of 2): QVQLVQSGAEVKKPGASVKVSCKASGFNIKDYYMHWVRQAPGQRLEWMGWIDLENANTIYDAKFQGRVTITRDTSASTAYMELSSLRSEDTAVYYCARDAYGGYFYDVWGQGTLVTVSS
T23 sequence (VL, as listed by the source, chain 2 of 2): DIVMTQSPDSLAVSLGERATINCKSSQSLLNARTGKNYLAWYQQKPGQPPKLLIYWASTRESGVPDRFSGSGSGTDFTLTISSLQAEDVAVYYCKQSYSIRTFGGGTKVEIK
How it was run: as §2

ADI-67450 = biological target: T24, ADI-67450; assay: SPR Carterra avidity, yeast anti-ID
T24 construct: anti-CD3 antibody made in CHO cells, captured by anti-human Fc
How it was run: as §2

ADI-76358 = biological target: T25, ADI-76358; assay: SPR Carterra avidity, yeast anti-ID
T25 construct: anti-CD3 antibody made in CHO cells, captured by anti-human Fc
How it was run: as §2

ADI-76361 = biological target: T26, ADI-76361; assay: SPR Carterra avidity, yeast anti-ID
T26 construct: anti-CD3 antibody made in CHO cells, captured by anti-human Fc
T26 sequence (VH, as listed by the source, chain 1 of 2): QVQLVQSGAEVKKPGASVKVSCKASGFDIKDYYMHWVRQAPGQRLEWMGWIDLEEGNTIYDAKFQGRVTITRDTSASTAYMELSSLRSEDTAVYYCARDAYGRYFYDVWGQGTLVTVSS
How it was run: as §2

ADI-76359 = biological target: T27, ADI-76359; assay: SPR Carterra avidity, yeast anti-ID
T27 construct: anti-CD3 antibody made in CHO cells, captured by anti-human Fc
How it was run: as §2

ADI-76360 = biological target: T28, ADI-76360; assay: SPR Carterra avidity, yeast anti-ID
T28 construct: anti-CD3 antibody made in CHO cells, captured by anti-human Fc
How it was run: as §2

ADI-26913 IgG = biological target: T29, ADI-26913 IgG; assay: SPR Carterra avidity, yeast anti-ID
T29 construct: anti-CD3 IgG
T29 sequence (VH, as listed by the source limits assumed, chain 1 of 2): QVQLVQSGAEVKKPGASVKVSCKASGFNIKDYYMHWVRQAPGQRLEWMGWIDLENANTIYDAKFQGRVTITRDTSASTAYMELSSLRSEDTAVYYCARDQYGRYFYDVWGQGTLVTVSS
How it was run: as §2

ADI-26920 IgG = biological target: T30, ADI-26920 IgG; assay: SPR Carterra avidity, yeast anti-ID
T30 construct: anti-CD3 IgG
T30 sequence (VH, as listed by the source limits assumed, chain 1 of 2): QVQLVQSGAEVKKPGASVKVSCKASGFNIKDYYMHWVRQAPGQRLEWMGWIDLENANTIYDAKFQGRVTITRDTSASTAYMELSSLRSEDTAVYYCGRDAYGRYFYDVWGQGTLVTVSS
How it was run: as §2

ADI-76362 = biological target: T31, ADI-76362; assay: SPR Carterra avidity, yeast anti-ID
T31 construct: anti-CD3 antibody made in CHO cells, captured by anti-human Fc
T31 sequence (VH, as listed by the source, chain 1 of 2): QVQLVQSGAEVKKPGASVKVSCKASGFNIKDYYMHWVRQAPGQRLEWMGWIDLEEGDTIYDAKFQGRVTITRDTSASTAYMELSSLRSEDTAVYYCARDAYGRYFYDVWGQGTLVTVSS
How it was run: as §2

ADI-26912 = biological target: T32, ADI-26912; assay: SPR Carterra avidity, yeast anti-ID
T32 construct: anti-CD3 antibody made in CHO cells, captured by anti-human Fc
T32 sequence (VH, as listed by the source, chain 1 of 2): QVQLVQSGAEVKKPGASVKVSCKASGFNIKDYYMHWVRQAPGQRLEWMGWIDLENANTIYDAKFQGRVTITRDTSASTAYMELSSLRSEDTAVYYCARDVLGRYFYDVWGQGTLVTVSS
How it was run: as §2

ADI-74966 = biological target: T33, ADI-74966; assay: SPR Carterra avidity, yeast anti-ID
T33 construct: pH-dependent anti-CD3 antibody made in CHO cells
How it was run: as §2

ADI-74967 = biological target: T34, ADI-74967; assay: SPR Carterra avidity, yeast anti-ID
T34 construct: pH-dependent anti-CD3 antibody made in CHO cells
How it was run: as §2

ADI-48592 = biological target: T35, ADI-48592; assay: SPR Carterra avidity, yeast anti-ID
T35 construct: pH-dependent anti-CD3 antibody made in CHO cells
T35 sequence (VH, as listed by the source, chain 1 of 2): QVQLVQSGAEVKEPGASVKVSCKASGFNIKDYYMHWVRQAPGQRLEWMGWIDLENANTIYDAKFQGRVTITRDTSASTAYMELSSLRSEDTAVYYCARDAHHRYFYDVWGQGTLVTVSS
T35 sequence (VL, as listed by the source, chain 2 of 2): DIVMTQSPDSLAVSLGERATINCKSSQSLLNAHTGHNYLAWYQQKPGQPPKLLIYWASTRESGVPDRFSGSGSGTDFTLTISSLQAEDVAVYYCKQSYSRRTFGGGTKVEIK
How it was run: as §2

ADI-26919 = biological target: T36, ADI-26919; assay: SPR Carterra avidity, yeast anti-ID
T36 construct: anti-CD3 antibody made in CHO cells, captured by anti-human Fc
How it was run: as §2

ADI-26921 IgG = biological target: T37, ADI-26921 IgG; assay: SPR Carterra avidity, yeast anti-ID
T37 construct: anti-CD3 IgG
How it was run: as §2

ADI-74968 = biological target: T38, ADI-74968; assay: SPR Carterra avidity, yeast anti-ID
T38 construct: pH-dependent anti-CD3 antibody made in CHO cells
T38 sequence (VL, as listed by the source, chain 2 of 2): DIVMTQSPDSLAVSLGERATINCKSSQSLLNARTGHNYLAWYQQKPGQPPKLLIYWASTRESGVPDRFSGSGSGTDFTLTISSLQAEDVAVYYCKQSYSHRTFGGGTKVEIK
How it was run: as §2

B1: ADI-34143 (antibody, V domains shown)
VH: EVQLLESGGGLVQPGGSLRLSCAASGFTFSSYAMSWVRQAPGKGLEWVSTISGSGGSTYYADSVKGRFTISRDNSKNTLYLQMNSLRAEDTAVYYCARLGGRRGSGSSYYYYYGMDVWGQGTTVTVSS
VL: not shown
notes: anti-ID IgG
Q: What does the source list for B1?
A: Kd (ADI-22523 Fab): 18.2 nM; Kd (ADI-22523 IgG): 2.98 nM; binding result (ADI-70326): no binding (tested: up to 200 nM); binding result (ADI-48650): no binding (tested: up to 200 nM); binding result (ADI-48587): no binding (tested: up to 200 nM); binding result (ADI-50024): no binding (tested: up to 200 nM); binding result (ADI-26909): no binding (tested: up to 200 nM); binding result (ADI-70330): no binding (tested: up to 200 nM); binding result (ADI-67445): no binding (tested: up to 200 nM); binding result (ADI-26915): no binding (tested: up to 200 nM); binding result (CTL-62240): no binding (tested: up to 200 nM); binding result (ADI-70327): no binding (tested: up to 200 nM); binding result (CTL-62223): no binding (tested: up to 200 nM); binding result (CTL-62228): no binding (tested: up to 200 nM); binding result (CTL-62227): no binding (tested: up to 200 nM); Kd (ADI-76357): 6.6 nM; Kd (ADI-26906 IgG): 13 nM; Kd (ADI-26924): 20 nM; binding result (ADI-48576): binds; binding result (ADI-74965): binds; Kd (ADI-67447): 33 nM; Kd (ADI-26916 IgG): 43 nM; Kd (ADI-26943): 11 nM; binding result (ADI-67450): binds; binding result (ADI-76358): binds; binding result (ADI-76361): binds; Kd (ADI-76359): 20 nM; binding result (ADI-76360): binds; Kd (ADI-26913 IgG): 23 nM; Kd (ADI-26920 IgG): 35 nM; binding result (ADI-76362): binds; binding result (ADI-26912): binds; Kd (ADI-74966): 36 nM; binding result (ADI-74967): binds; binding result (ADI-48592): binds; Kd (ADI-26919): 24 nM; binding result (ADI-26921 IgG): binds; Kd (ADI-74968): 130 nM

Source: patent US20250019439A1 (Adimab, published 2025)
